Experimental data published in patent publication US20250026797A1 (GOVERNMENT OF THE UNITED STATES OF AMERICA AS REPRESENTED …, published 2025).
No end group written: not given here. *: point of attachment. Biotin = O=C1N[C@H]2[C@H](CS[C@H]2CCCCC(=O)*)N1

T1: PGVVKSK(biotin) peptide (PGXVKSK(biotin), X = Val)
T1 construct: also called Val at P3
T1 peptide: PGVVKSK(Biotin)

T2: PVLVKSK(biotin) peptide (PXLVKSK(biotin), X = Val)
T2 construct: also called Val at P2
T2 peptide: PVLVKSK(Biotin)

T3: PSLVKSK(biotin) peptide (PXLVKSK(biotin), X = Ser)
T3 construct: also called Ser at P2
T3 peptide: PSLVKSK(Biotin)

T4: PGRVKSK(biotin) peptide (PGXVKSK(biotin), X = Arg)
T4 construct: also called Arg at P3
T4 peptide: PGRVKSK(Biotin)

T5: PGFVKSK(biotin) peptide (PGXVKSK(biotin), X = Phe)
T5 construct: also called Phe at P3
T5 peptide: PGFVKSK(Biotin)

T6: PGSVKSK(biotin) peptide (PGXVKSK(biotin), X = Ser)
T6 construct: also called Ser at P3
T6 peptide: PGSVKSK(Biotin)

T7: PGMVKSK(biotin) peptide (PGXVKSK(biotin), X = Met)
T7 construct: also called Met at P3
T7 peptide: PGMVKSK(Biotin)

T8: FGLVKSK(biotin) peptide (XGLVKSK(biotin), X = Phe)
T8 construct: also called Nt-Phe peptide
T8 peptide: FGLVKSK(Biotin)

T9: MGLVKSK(biotin) peptide (XGLVKSK(biotin), X = Met)
T9 construct: also called Nt-Met peptide
T9 peptide: MGLVKSK(Biotin)

T10: NH2-PGLVKSK(biotin)-COOH peptide (SMILES CC(C)C[C@H](NC(=O)CNC(=O)[C@@H]1CCCN1)C(=O)N[C@H](C(=O)N[C@@H](CCCCN)C(=O)N[C@@H](CO)C(=O)N[C@@H](CCCCNC(=O)CCCC[C@@H]1SC[C@@H]2NC(=O)N[C@@H]21)C(=O)O)C(C)C)
T10 construct: Immobilised on streptavidin biosensors in BLI; in solution in the yeast display sorts; also called Nt-Pro peptide; target peptide
T10 peptide: H-PGLVKSK(Biotin)-OH

T11: VGLVKSK(biotin) peptide (XGLVKSK(biotin), X = Val)
T11 construct: also called Nt-Val peptide
T11 peptide: VGLVKSK(Biotin)


Key:
[1] = biological target: T1, PGVVKSK(biotin) peptide …; test: BLI, biotinylated peptide on streptavidin biosensor
Experimental: (§1) The measurements were analyzed with instrument software Data Analysis HT (Version 12).
(§2) Previous works on GID4, as well as other N-degron proteins reported significant impact of the second position of the peptide (P2) on binding affinity. The impact of the P2 on the top variants were evaluated with BLI assay using PGLVKSK(biotin) and PXLVKSK(biotin) peptides, where X is Arg, Asp, Val, Phe, Ser, Met, or Pro. […] S283F variant and, especially, A252V variant retain higher level of BLI response compared to wild-type when Val or Ser is at P2. S283F variant retains 40% of signal with Ser at P2 and A252V variant retains >65% with Val and Ser. This retention of binding response with Val and Ser at P2, relative to Gly at P2, is maintained with the triple mutant the double mutants, with over 58% of signal retained for these variants when Ser is at P2. The A252V-S283F mutant and the triple mutant retained >55% of signal when Val is at P2.
(§3) Due to the depth of the binding pocket of GID4, the binding is impacted by the identity of residues in the target peptide beyond P2. […] Similar to evaluating the impact of P2, the impact of P3 was evaluated via BLI with PGLVKSK(biotin) peptide and PGXVKSK(biotin) peptides, where X is Arg, Asp, Val, Phe, Ser, Met, or Pro. […] Asp and Pro are particularly not favorable at P3, as almost no BLI signal was measured. The BLI response of variants with the rest of the peptides, however, increased.

[2] = biological target: T2, PVLVKSK(biotin) peptide …; test: as above
Experimental: as §1, §2, §3

[3] = biological target: T3, PSLVKSK(biotin) peptide …; test: as above
Experimental: as §1, §2, §3

[4] = biological target: T4, PGRVKSK(biotin) peptide …; test: as above
Experimental: as §1, §2, §3

[5] = biological target: T5, PGFVKSK(biotin) peptide …; test: as above
Experimental: as §1, §2, §3

[6] = biological target: T6, PGSVKSK(biotin) peptide …; test: as above
Experimental: as §1, §2, §3

[7] = biological target: T7, PGMVKSK(biotin) peptide …; test: as above
Experimental: as §1, §2, §3

[8] = biological target: T8, FGLVKSK(biotin) peptide …; test: BLI, biotinylated peptide on streptavidin biosensor, 10 µmol/L protein
Experimental: (§4) High-throughput kinetic measurements were taken using Octet Red96e system with Octet Streptavidin (SA) Biosensors in 96-well format. The highest concentration of protein was prepared by mixing 25% of the total volume with 0.4% BSA in dialysis buffer (1×PBS) and completing subsequent dilutions with 0.1% BSA in dialysis buffer. The SA biosensors were hydrated for 10 min in the dialysis buffer with 0.1% BSA then loaded with NH₂-XXXVKSK(biotin)-COOH (where X are residues specified in the experiment and figures) by moving the sensors into wells with 10 μmol/L of the biotinylated peptide and incubating for 2 min. Unbound peptide was removed by incubating in the dialysis buffer with 0.1% BSA for 2 min in the next wells. The association of GID4 wild-type and variants were then measured by incubating the biosensors in wells with the proteins for 10 min and then dissociation measured by moving the sensors into new wells with dialysis buffer with 0.1% BSA for another 10 min. All wells contained 200 μL of specified solution. The measurements were analyzed with instrument software Data Analysis HT (Version 12).
(§5) The association and dissociation of the GID4 wild-type and the six variants to the PGLVKSK(biotin) peptide were evaluated using BLI. BLI is an optical technique that can measure interaction between protein in solution ad peptide immobilized on the biosensor tip. […] The S283F variant has an apparent faster dissociation rate compared to the other singe mutation variants. The apparent faster dissociation rate due to S283F mutation is also present in A252V-S283F mutant, when compared to the A252V-S253T mutant. […] The increase in the BLI response and shift in dissociation rate can be beneficial as an Nt-Pro recognizing protein; differences in off-rate can be used as method to distinguish different Nt-amino acids.

[9] = biological target: T9, MGLVKSK(biotin) peptide …; test: as above
Experimental: as §4, §5

[10] = biological target: T10, NH2-PGLVKSK(biotin)-COOH peptide; test: as above
Experimental: as §4, §5

[11] = biological target: T11, VGLVKSK(biotin) peptide …; test: as above
Experimental: as §4, §5

Row | Binder | % of steady-state BLI response relative to PGLVKSK(biotin) [1] | % of steady-state BLI signal retained relative to PGLVKSK(biotin) [2] | % of steady-state BLI signal retained relative to PGLVKSK(biotin) [3] | % of steady-state BLI response relative to PGLVKSK(biotin) [4] | % of steady-state BLI response relative to PGLVKSK(biotin) [5] | % of steady-state BLI response relative to PGLVKSK(biotin) [6] | % of steady-state BLI response relative to PGLVKSK(biotin) [7] | binding result [8] | binding result [9] | binding result [10] | binding result [11] | % of binding response relative to PGLVKSK(biotin) [6] | fold steady-state BLI response against wild-type GID4 [10] | binding result [4] | binding result [1] | binding result [5] | binding result [7] | binding result [2]
1 | wild-type human GID4 fragment (residues 116-300), purified with N-terminal His-tag (other, Expressed in E. coli BL21(DE3), nickel-column purified; also called wild-type GID4; native GID4; not shown: N-terminal six-histidine tag and TEV protease recognition site from the pET21(+) construct) GVATSLLYSGSKFRGHQKSKGNSYDVEVVLQHVDTGNSYLCGYLKIKGLTEEYPTLTTFFEGEIISKKHPFLTRKWDADEDVDRKHWGKFLAFYQYAKSFNSDDFDYEELKNGDYVFMRWKEQFLVPDHTIKDISGASFAGFYYICFQKSAASIEGYYYHRSSEWYQSLNLTHVPEHSAPIYEFR | > 50% | – | – | – | – | – | – | – | – | – | – | – | – | – | – | – | – | –
2 | GID4 A252V-S283F double mutant variant (residues 116-300), purified with N-terminal His-tag (designed binder, also called A252V-S283F mutant; not shown: N-terminal six-histidine tag and TEV protease recognition site from the pET21(+) construct) GVATSLLYSGSKFRGHQKSKGNSYDVEVVLQHVDTGNSYLCGYLKIKGLTEEYPTLTTFFEGEIISKKHPFLTRKWDADEDVDRKHWGKFLAFYQYAKSFNSDDFDYEELKNGDYVFMRWKEQFLVPDHTIKDISGVSFAGFYYICFQKSAASIEGYYYHRSSEWYQFLNLTHVPEHSAPIYEFR | > 69% | > 55% | > 58% | > 69% | > 69% | > 51% | > 69% | binds | binds | binds | binds | – | – | – | – | – | – | –
3 | GID4 A252V variant (residues 116-300), purified with N-terminal His-tag (designed binder, not shown: N-terminal six-histidine tag and TEV protease recognition site from the pET21(+) construct) GVATSLLYSGSKFRGHQKSKGNSYDVEVVLQHVDTGNSYLCGYLKIKGLTEEYPTLTTFFEGEIISKKHPFLTRKWDADEDVDRKHWGKFLAFYQYAKSFNSDDFDYEELKNGDYVFMRWKEQFLVPDHTIKDISGVSFAGFYYICFQKSAASIEGYYYHRSSEWYQSLNLTHVPEHSAPIYEFR | > 60% | > 65% | > 65% | > 60% | > 60% | – | > 60% | binds | binds | – | binds | < 31% | 1.7 fold | – | – | – | – | –
4 | GID4 S253T variant (residues 116-300), purified with N-terminal His-tag (designed binder, not shown: N-terminal six-histidine tag and TEV protease recognition site from the pET21(+) construct) GVATSLLYSGSKFRGHQKSKGNSYDVEVVLQHVDTGNSYLCGYLKIKGLTEEYPTLTTFFEGEIISKKHPFLTRKWDADEDVDRKHWGKFLAFYQYAKSFNSDDFDYEELKNGDYVFMRWKEQFLVPDHTIKDISGATFAGFYYICFQKSAASIEGYYYHRSSEWYQSLNLTHVPEHSAPIYEFR | – | – | – | – | – | – | – | binds | binds | binds | binds | < 31% | – | binds | binds | binds | binds | –
5 | GID4 S283F variant (residues 116-300), purified with N-terminal His-tag (designed binder, not shown: N-terminal six-histidine tag and TEV protease recognition site from the pET21(+) construct) GVATSLLYSGSKFRGHQKSKGNSYDVEVVLQHVDTGNSYLCGYLKIKGLTEEYPTLTTFFEGEIISKKHPFLTRKWDADEDVDRKHWGKFLAFYQYAKSFNSDDFDYEELKNGDYVFMRWKEQFLVPDHTIKDISGASFAGFYYICFQKSAASIEGYYYHRSSEWYQFLNLTHVPEHSAPIYEFR | – | – | 40% | – | – | – | – | binds | binds | binds | binds | < 31% | – | binds | binds | binds | binds | binds
6 | GID4 A252V-S253T-S283F triple mutant variant (residues 116-300), purified with N-terminal His-tag (designed binder, not shown: N-terminal six-histidine tag and TEV protease recognition site from the pET21(+) construct) GVATSLLYSGSKFRGHQKSKGNSYDVEVVLQHVDTGNSYLCGYLKIKGLTEEYPTLTTFFEGEIISKKHPFLTRKWDADEDVDRKHWGKFLAFYQYAKSFNSDDFDYEELKNGDYVFMRWKEQFLVPDHTIKDISGVTFAGFYYICFQKSAASIEGYYYHRSSEWYQFLNLTHVPEHSAPIYEFR | > 69% | > 55% | > 58% | > 69% | > 69% | > 51% | > 69% | binds | binds | – | binds | – | > 2.3 fold | – | – | – | – | –
7 | GID4 A252V-S253T double mutant variant (residues 116-300), purified with N-terminal His-tag (designed binder, also called A252V-S253T mutant; not shown: N-terminal six-histidine tag and TEV protease recognition site from the pET21(+) construct) GVATSLLYSGSKFRGHQKSKGNSYDVEVVLQHVDTGNSYLCGYLKIKGLTEEYPTLTTFFEGEIISKKHPFLTRKWDADEDVDRKHWGKFLAFYQYAKSFNSDDFDYEELKNGDYVFMRWKEQFLVPDHTIKDISGVTFAGFYYICFQKSAASIEGYYYHRSSEWYQSLNLTHVPEHSAPIYEFR | > 69% | – | > 58% | > 69% | > 69% | > 51% | > 69% | binds | binds | binds | binds | – | – | – | – | – | – | binds
